Results taken from IntAct's records for PubMed 26258632.

B1: Mitotic spindle assembly checkpoint protein MAD1 (Homo sapiens), Q9Y6D9 (parent)
chain: MEDLGENTMVLSTLRSLNNFISQRVEGGSGLDISTSAPGSLQMQYQQSMQLEERAEQIRSKSHLIQVEREKMQMELSHKRARVELERAASTSARNYEREVDRNQELLTRIRQLQEREAGAEEKMQEQLERNRQCQQNLDAASKRLREKEDSLAQAGETINALKGRISELQWSVMDQEMRVKRLESEKQELQEQLDLQHKKCQEANQKIQELQASQEARADHEQQIKDLEQKLSLQEQDAAIVKNMKSELVRLPRLERELKQLREESAHLREMRETNGLLQEELEGLQRKLGRQEKMQETLVGLELENERLLAKLQSWERLDQTMGLSIRTPEDLSRFVVELQQRELALKDKNSAVTSSARGLEKARQQLQEELRQVSGQLLEERKKRETHEALARRLQKRVLLLTKERDGMRAILGSYDSELTPAEYSPQLTRRMREAEDMVQKVHSHSAEMEAQLSQALEELGGQKQRADMLEMELKMLKSQSSSAEQSFLFSREEADTLRLKVEELEGERSRLEEEKRMLEAQLERRALQGDYDQSRTKVLHMSLNPTSVARQRLREDHSQLQAECERLRGLLRAMERGGTVPADLEAAAASLPSSKEVAELKKQVESAELKNQRLKEVFQTKIQEFRKACYTLTGYQIDITTENQYRLTSLYAEHPGDCLIFKATSPSGSKMQLLETEFSHTVGELIEVHLRRQDSIPAFLSSLTLELFSRQTVA

Variants of: B1
Settings: with cenpe_human CENPE

effect of a mutation on the interaction	Variant
disrupting interaction strength	L17A;N18A;N19A;F20A;I21A

Variants of: B1
Settings: with cenpe_human CENPE
Remark: another data set of the same source

effect of a mutation on the interaction	Variant
decreasing interaction strength	L17A;N18A;N19A;F20A;I21A
